From paper PMC8189435, “Timer-based proteomic profiling of the ubiquitin-proteasome system reveals a substrate receptor of the GID ubiquitin ligase” (Molecular Cell, 2021)

Biological target: T1, Gid1-tFT (chromosomally tagged Gid1-mCherry-sfGFP) (S. cerevisiae, UniProt P53076 1-958)
T1 construct: Gid1, subunit of the GID ubiquitin ligase complex, S. cerevisiae; endogenous locus tagged with mCherry-sfGFP; It was precipitated with anti-GFP antibodies from lysate, so other GID subunits are likely present with it; source: S. cerevisiae, chromosomally tagged (strain YMaM1083; YLZY0091 for gid5Δ), in lysate; not shown: mCherry-sfGFP timer (tFT), C-terminal, kept
T1 sequence (looked up): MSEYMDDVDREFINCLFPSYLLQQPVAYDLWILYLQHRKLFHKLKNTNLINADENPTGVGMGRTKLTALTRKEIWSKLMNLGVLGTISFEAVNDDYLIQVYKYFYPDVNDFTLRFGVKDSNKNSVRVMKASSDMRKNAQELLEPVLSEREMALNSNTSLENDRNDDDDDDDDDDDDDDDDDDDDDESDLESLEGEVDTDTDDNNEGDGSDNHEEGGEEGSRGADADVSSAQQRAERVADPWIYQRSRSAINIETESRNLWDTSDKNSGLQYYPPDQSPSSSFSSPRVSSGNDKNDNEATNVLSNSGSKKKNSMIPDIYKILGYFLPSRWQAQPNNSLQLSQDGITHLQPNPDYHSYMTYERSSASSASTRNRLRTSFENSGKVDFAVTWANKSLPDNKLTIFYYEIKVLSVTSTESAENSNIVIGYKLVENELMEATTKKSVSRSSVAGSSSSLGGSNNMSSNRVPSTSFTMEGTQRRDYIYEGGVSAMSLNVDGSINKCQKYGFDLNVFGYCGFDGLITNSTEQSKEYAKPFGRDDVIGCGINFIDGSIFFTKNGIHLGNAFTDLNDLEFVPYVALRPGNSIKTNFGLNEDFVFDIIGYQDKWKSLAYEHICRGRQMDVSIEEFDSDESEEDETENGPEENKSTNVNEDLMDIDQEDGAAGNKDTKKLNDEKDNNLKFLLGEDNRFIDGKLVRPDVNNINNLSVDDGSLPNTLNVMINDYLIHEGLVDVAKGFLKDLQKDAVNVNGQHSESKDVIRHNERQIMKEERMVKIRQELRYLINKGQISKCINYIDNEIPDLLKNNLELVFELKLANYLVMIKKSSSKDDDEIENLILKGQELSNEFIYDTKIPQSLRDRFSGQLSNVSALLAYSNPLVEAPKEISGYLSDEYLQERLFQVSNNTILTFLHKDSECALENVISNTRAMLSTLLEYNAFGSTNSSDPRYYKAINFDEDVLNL
Test: co-IP; tFT-tagged bait precipitated with rabbit anti-GFP on Dynabeads from yeast lysates (log phase, SC medium lacking histidine, 2% glucose); IP buffer 50 mM Tris-HCl pH 7.5, 100 mM NaCl, 1% Triton X-100, 2 mM EDTA; 2 h at 4°C; HA-tagged prey detected by anti-HA blot; WT or gid5Δ cells
Conditions: partners not purified

B1: HA-Gid11 (Ylr149c/Gid11) (natural protein, S. cerevisiae, UniProt Q99296 1-730, looked up)
chain: MTIDGTGQSKEALQDERLNTGSDKVYQNYMMPALELYDAKVSINHWQLRDCIKPGSMNQSKLYYIYDHSIRVLDTDSSVLRSPVRRHNSIQPSNSGKNSTEKTSTKGSRTTGSYISKNLHVPSEKLVEFNFKPRCFTELNGLTVCGGLIGSDDKGFPSNWNRLAQDANISLPPPSQPINISKNISFPINSHYSNPNIWKGIVEFYNQETDTMMTFTLGQFINNCVTLYDRASMQFDLFACNNDGHLYQCDVSNRDVTLVKRYADLKFPLNNASLSHDGQTMVVSGDSNKFAVYNQNELTNQFSLHYDNHPSWGSSVNRVRRIPRFALPDESEYIENIYEAPNSDHGFYNSFSENDLQFATVFQNGTCAIYDIRNMATPMAEISSTRPHSHNGAFRVCRFSYGLDDLLFISEHQGRVHVVDTRNYVNHQVIVIPDKVNMEYINERKHNTNHNFTTNNNNENESNDSKNELQGADYRSLSRRRFSLPSMPNVTTEPWITMAQRIPKKYLEPQILPFPKVMDKISNESVLFSTKGSSSSDVAHPYKRRCSFRVRRVSTSAPTADYSNNNVNASLGTPAADSIATSSSNSAPQNLIDPLILSHQQASNDVFEDDEYYEAYNDVHSTYRVSSDYHGVSARAFESFLRPPSTPDLPSDDDNFAANSRNNRGTSNFLRRPVITTQESNEFSEENNISGIDWVEDRNGSSLIIGTDYGIMRWNINSWARRSFSSYDLC
notes: Gid11 (Ylr149c), S. cerevisiae, WD40/YVTN repeat-like domain protein; the last 4 residues are printed as 727-730, so the protein ends at residue 730; also called HA-YLR149C; source: S. cerevisiae, overexpressed from plasmid pRS413-GPDpr-HA-YLR149C, in lysate; not shown: HA, N-terminal, kept
- relative amount of co-immunoprecipitated HA-Gid11, normalized to precipitated Gid1-tFT, in gid5Δ cells compared with the WT: 0.43 relative to WT
